The results in this text go back to patent publication US20140179593A1 (published 2014).

Positions of bridges follow the written chain, without caps; N, C: chain ends. Non-standard residues stand in square brackets, D forms with d. *: point of attachment. S5 = C=CCCC[C@](C)(N)C(=O)O; For = O=C*

For assay [1], the target named is T1, yDcn1^P (potentiating neddylation (PONY) domain of S. cerevisiae Dcn1) (Saccharomyces cerevisiae, UniProt Q12395 70-269).
T1 construct: NEDD8 co-E3; Expressed in E. coli
T1 sequence: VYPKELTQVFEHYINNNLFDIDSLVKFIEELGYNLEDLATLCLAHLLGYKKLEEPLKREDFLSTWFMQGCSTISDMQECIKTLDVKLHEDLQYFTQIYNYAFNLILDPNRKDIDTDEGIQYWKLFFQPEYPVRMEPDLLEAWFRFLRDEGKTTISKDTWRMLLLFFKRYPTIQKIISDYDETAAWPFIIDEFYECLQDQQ
Kind of assay: ITC; against Acetyl-yUbc12^1-24. On the procedure: (§1) Protein samples were buffer matched by desalting over a NAP-5 column (GE Healthcare) into 50 mM Hepes, 125 mM NaCl, 1 mM BME, pH 7.0 (ITC buffer). Peptides were dissolved by weight to a final concentration of 10 mM in ITC buffer and diluted further in ITC buffer as required for the experiments. […] The peptide ligands (4 mM) were constantly injected (1.5 μl). The interval time between each injection was 3 minutes and the duration of each injection was 3 seconds. […] Peptide ligands (250 μM) were constantly injected (2.5 μl). The interval time between each injection was three minutes and the duration of each injection was 5 seconds. […] The interval time between each injection was 3 minutes and the duration of each injection was 5 seconds. Obtained spectra were evaluated using Origin (V 7.0) to determine heats of binding and Kd values.

Assay [2] deals with T2, hE1 for Nedd8 (APPBP1-UBA3, NAE1-UBA3) (Homo sapiens, UniProt Q13564 18-534; Q8TBC4 22-463, limits assumed).
T2 construct: Heterodimer of NAE1 and UBA3, expressed in E. coli as described previously
T2 sequence 1: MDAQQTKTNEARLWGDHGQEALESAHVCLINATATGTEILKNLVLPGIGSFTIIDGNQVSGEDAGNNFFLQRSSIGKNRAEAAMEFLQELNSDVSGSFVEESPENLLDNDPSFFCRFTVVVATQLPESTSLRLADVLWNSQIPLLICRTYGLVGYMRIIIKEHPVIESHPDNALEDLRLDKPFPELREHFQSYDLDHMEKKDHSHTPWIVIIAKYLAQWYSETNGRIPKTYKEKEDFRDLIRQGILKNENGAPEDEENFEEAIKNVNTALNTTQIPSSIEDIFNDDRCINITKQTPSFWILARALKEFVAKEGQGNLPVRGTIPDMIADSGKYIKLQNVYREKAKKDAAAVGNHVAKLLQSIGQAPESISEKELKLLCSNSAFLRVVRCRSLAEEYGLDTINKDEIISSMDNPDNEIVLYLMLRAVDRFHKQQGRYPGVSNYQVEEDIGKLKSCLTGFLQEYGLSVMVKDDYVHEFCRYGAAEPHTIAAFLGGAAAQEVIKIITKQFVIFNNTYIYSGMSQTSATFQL
T2 sequence 2: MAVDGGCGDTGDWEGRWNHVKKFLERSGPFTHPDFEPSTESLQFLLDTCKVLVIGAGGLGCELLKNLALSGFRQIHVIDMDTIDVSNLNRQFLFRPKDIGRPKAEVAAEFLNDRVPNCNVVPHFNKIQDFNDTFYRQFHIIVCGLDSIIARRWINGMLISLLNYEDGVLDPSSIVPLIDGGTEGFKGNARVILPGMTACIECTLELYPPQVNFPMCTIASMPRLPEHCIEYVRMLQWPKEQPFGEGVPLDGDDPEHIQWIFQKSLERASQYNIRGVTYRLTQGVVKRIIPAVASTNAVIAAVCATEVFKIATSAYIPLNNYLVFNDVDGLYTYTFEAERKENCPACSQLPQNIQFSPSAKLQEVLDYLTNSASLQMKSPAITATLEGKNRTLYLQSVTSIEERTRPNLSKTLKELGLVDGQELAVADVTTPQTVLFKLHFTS
Kind of assay: not named in the sentence (ITC in Table 25). How it is done: (§2) Specifically, Phe5 and Gln9 were replaced with (S)-2-(4′-pentenyl) alanine and these side-chains were covalently linked to test the effect of “stapling” an acetylated Ubc12 peptide into a helix (Bird et al. (2008) Methods Enzymol 446:369-386).
as §1

Assay [3] has as its target T3, hDcn1^P (residues 62 to the C-terminal residue 259 of hDcn1, aka SCCRO or DCUN1D1) (Homo sapiens, UniProt Q96GG9 62-259).
T3 construct: Expressed as a GST fusion in E. coli; GST released by TEV protease; also called DCUN1D1^P; PONY domain of hDcn1
As to the kind of experiment: ITC; against Acetyl-hUbc12^1-12. On the procedure: as §2, §1

T3 sequence (Q96GG9 62-259): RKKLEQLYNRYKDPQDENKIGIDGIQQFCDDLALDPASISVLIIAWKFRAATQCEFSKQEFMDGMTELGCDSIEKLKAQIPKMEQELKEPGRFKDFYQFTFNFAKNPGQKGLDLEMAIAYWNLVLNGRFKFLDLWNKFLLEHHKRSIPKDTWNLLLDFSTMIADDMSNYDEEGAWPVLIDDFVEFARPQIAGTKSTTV

B1: Formyl-yUbc12^1-24 (peptide)
peptide: For-MLKLRQLQKKKQKENENSSSIQPN-NH2
SMILES: CC[C@H](C)[C@H](NC(=O)[C@H](CO)NC(=O)[C@H](CO)NC(=O)[C@H](CO)NC(=O)[C@H](CC(N)=O)NC(=O)[C@H](CCC(=O)O)NC(=O)[C@H](CC(N)=O)NC(=O)[C@H](CCC(=O)O)NC(=O)[C@H](CCCCN)NC(=O)[C@H](CCC(N)=O)NC(=O)[C@H](CCCCN)NC(=O)[C@H](CCCCN)NC(=O)[C@H](CCCCN)NC(=O)[C@H](CCC(N)=O)NC(=O)[C@H](CC(C)C)NC(=O)[C@H](CCC(N)=O)NC(=O)[C@H](CCCNC(=N)N)NC(=O)[C@H](CC(C)C)NC(=O)[C@H](CCCCN)NC(=O)[C@H](CC(C)C)NC(=O)[C@H](CCSC)NC=O)C(=O)N[C@@H](CCC(N)=O)C(=O)N1CCC[C@H]1C(=O)N[C@@H](CC(N)=O)C(N)=O
notes: Synthetic peptide; also called N-terminally formylated yeast Ubc12 peptide
In the case of B1, the “fold change of Kd against the acetylated peptide” value in assay [1] was approximately 17 fold.

B2: Acetyl-hUbc12^1-12(5:9Staple) (peptide)
peptide: Ac-MIKL[S5]SLK[S5]QKK-NH2
modifications: staple 5-9
notes: Printed Ac-MIKLXSLKXQKK-NH2, X = 2-(4-pentenyl)alanine; also called stapled helical peptide
Regarding B2, the binding result in assay [2] is given as “no binding”. Further, the “fold improvement of binding over the unstapled peptide” value in assay [3] stood at 14 fold.
